Peptide text beside a SMILES is read from it. * marks the point of attachment. Cbz = O=C(OCc1ccccc1)*
Experiments:
proteasome = test: Western blot of core protein after treatment with proteasome inhibitor MG132; format: cell-based, hamster; conditions: cells electroporated with pSFV.1-124, 145-152; MG132 2.5 μM from 4 hours after electroporation, harvested at 16 hours
Description: A. Western Blot analysis of extracts prepared from cells which were harvested 16 hours after electroporation following treatment with proteasomal inhibitor MG132. Aliquots of extracts containing the same number of cell equivalents were analyzed with antibody JM122. The samples were from cells electroporated with RNA from the following constructs: lanes 1 and 2, PSFV.1-195; lanes 3 and 4, pSFV.1-124, 145-152; lanes 5 and 6, pSFV.Δ125-144; lanes 7 and 8, pSFV.1-153; lanes 9 and 10, no RNA. Samples in lanes with odd numbers were prepared from cells not treated with MG132. Samples in lanes with even numbers were prepared from cells which had been incubated in the presence of MG132 (final concentration 2.5 μM) from 4 hours after electroporation.
For Western blot analysis, proteins were separated on polyacrylamide gels and transferred to nitrocellulose membrane using standard techniques. The nitrocellulose membrane was blocked in 3% gelatin, 20 mM Tris (pH 7.5), 500 mM NaCl for at least 6 hours at 37° C. prior to incubation with the primary antibody. Incubations with the primary antibody (diluted to 1/500for adipophilin antibody and 1/1000for JM122) were performed in 1% gelatin, 20 mM Tris (pH 7.5), 500 mM NaCl, 0.05% Tween 20 at either room temperature or 37° C. for approximately 3-4 hours. […] Bound antibody was detected by enhanced chemiluminescence.

lipid droplets = test: Intracellular localization of tagged GBV-B and HCV core proteins (Example 10); format: cell-based, hamster; conditions: BHK cells, epitope tag detected with antibody 9220 or JM122, oil red O
From the text: To express portions of the GBV-B polyprotein, relevant regions were amplified by PCR from a construct pGBB (30). pGBB contains the consensus sequence for an infectious molecular clone of GBV-B (30). Primers for PCR amplification were derived from the viral sequences in pGBB and were used in the following pairs to produce DNA fragments that encoded N-terminal regions of the GBV-B polyprotein: residues 1-141, GBV-B primers 1 and 2; residues 1-194, GBV-B primers 1 and 3; residues 1-398, GBV-B primers 1 and 4. Amplified fragments were introduced initially into plasmid pGEM1 and thereafter into pSFV1 by standard cloning techniques. To permit detection of GBV-B core, an epitope tag (32) was introduced into the coding region immediately following amino acid residue 85 (FIG. 7). […] An oligonucleotide encoding the epitope tag (GBV-B5 in Table 1) was inserted between this XbaI site and a TfiI site (position 708 in the native GBV-B nucleotide sequence). The final SFV constructs that contained tagged versions of GBV-B core were termed pSFV/GB1-141, pSFV/GB1-194 and pSFV/GB1-398. […]
Cells on 13 mm coverslips were fixed for 30 min in 4% paraformaldehyde, 0.1% Triton X-100 (prepared in phosphate-buffered saline) at 4° C. […] Samples were analyzed using a Zeiss LSM confocal microscope.

Molecule: CC(C)C[C@@H](C=O)NC(=O)[C@H](CC(C)C)NC(=O)[C@H](CC(C)C)NC(=O)OCc1ccccc1 [MG132] (Cbz-Leu-Leu-Leu-aldehyde)
- increase in the amount of protein detected by Western blot analysis (proteasome): 4 fold

B1: pSFV/GB1-141: SFV construct with epitope-tagged GBV-B core, residues 1-141 of the GBV-B polyprotein (protein)
chain: MPVISTQTSPVPAPRTRKNKQTQASYPVSIKTSVERGQRAKRKVQRDARPRNYKIAGIHDGLQTLAQAALPAHGWGRQDPRHKSRNLGILLDYPLGWIGDVTTHTPLVGPLVAGAVVRPVCQIVRLLEDGVNWATGWFGVH
modifications: left off: small tags and cut ends
- intracellular localization relative to lipid droplets (lipid droplets): localization of the protein around lipid droplets

B2: pSFV/GB1-398: SFV construct with epitope-tagged GBV-B core, residues 1-398 of the GBV-B polyprotein (protein)
chain: MPVISTQTSPVPAPRTRKNKQTQASYPVSIKTSVERGQRAKRKVQRDARPRNYKIAGIHDGLQTLAQAALPAHGWGRQDPRHKSRNLGILLDYPLGWIGDVTTHTPLVGPLVAGAVVRPVCQIVRLLEDGVNWATGWFGVHLFVVCLLSLACPCSGARVTDPDTNTTILTNCCQRNQVIYCSPSTCLHEPGCVICADECWVPANPYISHPSNWTGTDSFLADHIDFVMGALVTCDALDIGELCGACVLVGDWLVRHWLIHIDLNETGTCYLEVPTGIDPGFLGFIGWMAGKVEAVIFLTKLASQVPYAIATMFSSVHYLAVGALIYYASRGKWYQLLLALMLYIEATSGNPIRVPTGCSIAEFCSPLMIPCPCHSYLSENVSEVICYSPKWTRPVTLE
modifications: left off: small tags and cut ends
- intracellular localization relative to lipid droplets (lipid droplets): staining around lipid droplets

Source: US20020115066A1, “Viral therapeutics” (priority 1998, published 2002)
